In assay [1] the target is T1, Avi/His-HuIL18BPa (recombinant human IL-18BP isoform A with Avi and poly-His tags) (human, biotinylated with BirA on the Avi tag in some assays).
T1 construct: also called human IL-18BP-Avi-His
T1 chain: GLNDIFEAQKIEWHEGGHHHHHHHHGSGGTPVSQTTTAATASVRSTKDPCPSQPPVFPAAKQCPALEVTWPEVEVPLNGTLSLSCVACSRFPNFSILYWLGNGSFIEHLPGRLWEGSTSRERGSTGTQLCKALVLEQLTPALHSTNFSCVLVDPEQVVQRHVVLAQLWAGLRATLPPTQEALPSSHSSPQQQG
Nature of the assay: blocking ELISA, competitor human IL-18.

The target in assay [2] is T1, Avi/His-HuIL18BPa (recombinant human …). Nature of the assay: SPR Biacore T200, IgG captured on Protein A/G.
For assay [3], the target named is T2, His/Avi-CynoIL18BP (recombinant cynomolgus IL-18BP with His and Avi tags) (cynomolgus monkey).
T2 construct: also called cynomolgus IL-18BP-Avi-His
T2 chain: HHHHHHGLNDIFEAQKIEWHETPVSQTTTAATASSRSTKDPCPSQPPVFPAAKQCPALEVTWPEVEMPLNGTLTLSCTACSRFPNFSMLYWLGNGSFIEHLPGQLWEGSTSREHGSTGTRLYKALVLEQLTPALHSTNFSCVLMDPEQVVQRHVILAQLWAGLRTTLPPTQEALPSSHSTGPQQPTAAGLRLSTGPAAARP
Nature of the assay: SPR Biacore T200, IgG captured on Protein A/G.

The target in assay [4] is T2, His/Avi-CynoIL18BP (recombinant …). Nature of the assay: cell-based or functional assay.
Assay [5] concerns the target T3, mouse IL-18BPd-human IgG Fc (R&D Systems, Cat. #122-BP-100) (mouse; human, UniProt Q9Z0M9 29-193).
T3 construct: Bought; also called mouse IL-18BPd-Fc Chimera
T3 sequence (looked up): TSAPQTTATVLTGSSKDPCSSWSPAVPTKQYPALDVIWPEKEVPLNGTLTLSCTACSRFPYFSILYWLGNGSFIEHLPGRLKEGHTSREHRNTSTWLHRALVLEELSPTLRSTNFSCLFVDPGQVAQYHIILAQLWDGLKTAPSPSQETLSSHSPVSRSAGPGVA
Nature of the assay: blocking ELISA, competitor mouse IL-18.

The target in assay [6] is T2, His/Avi-CynoIL18BP (recombinant …). Nature of the assay: blocking ELISA, competitor rhesus IL-18.
For assay [7], the target named is T1, Avi/His-HuIL18BPa (recombinant human …). Nature of the assay: cell-based or functional assay.
The target in assay [8] is T4, Avi/HisMsIL18BPd (recombinant mouse IL-18BP with Avi and poly-His tags) (mouse, biotinylated with BirA on the Avi tag in some assays).
T4 chain: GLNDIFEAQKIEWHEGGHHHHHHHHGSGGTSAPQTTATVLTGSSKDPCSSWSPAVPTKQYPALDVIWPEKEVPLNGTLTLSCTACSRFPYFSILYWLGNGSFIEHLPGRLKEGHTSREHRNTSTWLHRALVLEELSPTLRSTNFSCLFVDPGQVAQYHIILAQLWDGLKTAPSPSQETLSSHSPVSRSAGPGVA
Nature of the assay: cell-based or functional assay.

The target in assay [9] is T1, Avi/His-HuIL18BPa (recombinant human …). The experiment in a line: ELISA, coated IL-18BP.
The target in assay [10] is T4, Avi/HisMsIL18BPd (recombinant mouse …). The experiment in a line: ELISA, coated IL-18BP.
In assay [11] the target is T2, His/Avi-CynoIL18BP (recombinant …). Nature of the assay: ELISA, coated IL-18BP.
The target of assay [12] is T1, Avi/His-HuIL18BPa (recombinant human …). Nature of the assay: SPR Carterra LSA, IgG immobilized.
Assay [13] deals with T2, His/Avi-CynoIL18BP (recombinant …). The experiment in a line: SPR Carterra LSA, IgG immobilized; WB = weak binding with KD > 1 µM.
For assay [14] the target is unchanged. The experiment in a line: SPR Carterra LSA, IgG immobilized.
Assay [15] has as its target T5, Avi/HisMsIL18BPd (recombinant mouse IL-18BP with Avi and poly-His tags) (mouse).
T5 sequence (chain, biotinylated with BirA on the Avi tag in some assays): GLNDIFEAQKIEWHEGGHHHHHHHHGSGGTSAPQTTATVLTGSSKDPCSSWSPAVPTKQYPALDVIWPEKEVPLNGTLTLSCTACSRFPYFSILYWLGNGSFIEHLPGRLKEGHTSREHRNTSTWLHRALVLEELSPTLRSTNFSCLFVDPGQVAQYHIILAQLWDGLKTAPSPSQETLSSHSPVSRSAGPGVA
Nature of the assay: cell-based or functional assay.

Assay [16] has the same target. The experiment in a line: ELISA, coated IL-18BP.

B1: anti-IL18BP antibody BP-11 (antibody, human IgG1, V domains shown)
VH: QVQLQQSGAELAKPGASVKMSCKASGYTFTNYWMHWVKQRPGQGLEWIGHIDPSTGYTEYNQKFKDKATLTADKSSSTAYMQLSSLTSEDSAVYYCARGLGGLFGYWGQGTLVTVSA
VL: DIQMTQSPSSLSASLGGKVTITCKASQDINKFIAWYQHKPGKGPRLLIHHTSTLMPGIPSRFSGSGSGREYSFSISNLEPEDIATYYCLQYDNLLWTFGGGTKLEIR
On to B1, for which the “blocking ELISA signal normalized to isotype control (=1)” value (shortened to “blocking ELISA signal normalized”) is 0.089 ratio to isotype control in assay [1], 0.14 ratio to isotype control in [5] and 0.49 ratio to isotype control in [6]. In addition, the figures for the Kd in [2] and in assay [3] were 2.9 nM and 1 nM, respectively. In addition, the “% of Max Gamma, human NK cells” value in assay [4] came to 100%. Besides, in assay [4], the “EC50 of IFNγ release, human NK cells” value turned out to be 37.1 nM. For the same molecule, the “EC50 of IFNγ release, human PBMC” value in [7] was determined as 4.25 nM. For the same molecule, in assay [7], the “Fold change of IFNγ at 10 µg/ml vs baseline, human PBMC” value (“Fold change of IFNγ … human PBMC” below) came to 9.72 fold. The “EC50 of IFNγ release, mouse splenocytes” value in assay [8] was determined as 7 nM. In addition, in assay [8], the “Fold change of IFNγ at 10 µg/ml vs baseline, mouse splenocytes” value (from here on “Fold change of IFNγ … mouse splenocytes”) came out at 2.75 fold. Also, the “ELISA binding ratio (fold-change over background)” value was found to be 44.4 fold over background in [9], 43.6 fold over background in [10] and 47.6 fold over background in assay [11].

B2: anti-IL18BP antibody BP-02 (antibody, human IgG1, V domains shown)
VH: EVQLQQSGPELVKPGASVKIPCKASGYTFTDYNMDWVKQSHGKSLEWIGNINTNNGGTVYNQKFKGKATLTVDKSSSTAYMELRSLTSEDTAVYYCARSDTTVVASRYYAMDYWGQGTSVTVSL
VL: DIVLTQSPASLAMSLGKRATISCRASESVSIIATNLIHWYQQKPGQPPKLLIYHASNLETGVPARFSGSGSRTDFTLTIDPVEKDDVAIYYCLQSRKIPPTFGGGTKLEIK
As to B2, the figures for the “blocking ELISA signal normalized” value in [1], in [5] and in [6] were 0.167 ratio to isotype control, 0.132 ratio to isotype control and 0.973 ratio to isotype control, respectively. The “% of Max Gamma, human NK cells” value in assay [4] came out at 10.4%. Moreover, the “EC50 of IFNγ release, human NK cells” value in [4] is 1.99 nM. Moreover, the results for the Kd in [12] and in assay [13] were 1.6 nM and greater than 1000 nM, respectively. For the same molecule, in assay [7], the “EC50 of IFNγ release, human PBMC” value is 0.75 nM. Moreover, in assay [7], the “Fold change of IFNγ … human PBMC” value is 16.7 fold. In [8], the “EC50 of IFNγ release, mouse splenocytes” value was 4.3 nM. Moreover, the “Fold change of IFNγ … mouse splenocytes” value in assay [8] turned out to be 9.34 fold. The “ELISA binding ratio (fold-change over background)” value in [9] is 35.1 fold over background; in assay [10], 39.2 fold over background; in assay [11], 29.7 fold over background.

B3: anti-IL18BP antibody BP-05 (antibody, human IgG1, V domains shown)
VH: EVQLQQSGPELVKPGASVKIPCKASGYTFTDYNMDWVKQSHGKSLEWIGNINTNNGGTVYNQKFKDKATLTVDKSSSTAYMELRSLTSEDTAVYYCARSDTTVVASRYYALDYWGQGTSVTVSS
VL: DIVLTQSPASLAMSLGKRATISCRASESVSIIGTDLIHWYQQKPGQPPKLLIYHASNLETGVPARFSGSGSRTDFTLTIDPVEEDDVAIYYCLQSRKIPPTFGGGTKLEIK
On to B3, for which the “blocking ELISA signal normalized” value in assay [1] is 0.191 ratio to isotype control; in assay [5], 0.138 ratio to isotype control; in [6], 0.989 ratio to isotype control. Further, the Kd in assay [12] is 1.67 nM; in [13], greater than 1000 nM. Also, the “EC50 of IFNγ release, human PBMC” value in assay [7] worked out at 1.33 nM. Moreover, the “Fold change of IFNγ … human PBMC” value in [7] came to 16.4 fold. Further, the “EC50 of IFNγ release, mouse splenocytes” value in [8] was found to be 2.94 nM. For the same molecule, the “Fold change of IFNγ … mouse splenocytes” value in assay [8] was 3.15 fold. In addition, the “ELISA binding ratio (fold-change over background)” value was 38.3 fold over background in assay [9], 32.1 fold over background in assay [10] and 9.7 fold over background in assay [11].

B4: anti-IL18BP antibody BP-15 (antibody, human IgG1, V domains shown)
VH: QVQLVQSGAEVKKPGASVKVSCKASGYTFTTYDINWVRQAPGQGLEWMGIINPSGGSTSYAQKFQGRVTMTRDTSTSTVYMELSSLRSEDTAVYYCATGIGELDFDYWGQGTLVTVSS
VL: DIQMTQSPSSLSASVGDRVTITCRASQSISSYLNWYQQKPGKAPKLLIYKASTLHNGVPSRFSGSGSGTDFTLTISNLQPEDFATYYCQQAISFPLTFGGGTKVEIK
For B4, in assay [4], the “% of Max Gamma, human NK cells” value worked out at 10% and the “EC50 of IFNγ release, human NK cells” value is 0.000106 nM. Further, in assay [5], the “blocking ELISA signal normalized” value was 0.211 ratio to isotype control. Further, in [12], the dissociation constant Kd stood at 18.8 nM. In addition, in assay [7], the “EC50 of IFNγ release, human PBMC” value turned out to be 100 nM and the “Fold change of IFNγ … human PBMC” value was 36 fold. In [8], the “EC50 of IFNγ release, mouse splenocytes” value was found to be 5.85 nM and the “Fold change of IFNγ … mouse splenocytes” value came to 7.94 fold. Further, in assay [13], the Kd is greater than 1000 nM. Besides, in [9], the “ELISA binding ratio (fold-change over background)” value is 32.7 fold over background. In addition, the “ELISA binding ratio (fold-change over background)” value in assay [10] was 30.1 fold over background. In assay [11], the “ELISA binding ratio (fold-change over background)” value stood at 34.5 fold over background.

B5: anti-IL18BP antibody BP-16 (antibody, human IgG1, V domains shown)
VH: QVQLVQSGAEVKKPGASVKVSCKASGYTFTTYDINWVRQAPGQGLEWMGIIGSYGGATSYAQKFQGRVTMTRDTSTSTVYMELSSLRSEDTAVYYCATAEEELRFDYWGQGTLVTVSS
VL: DIQMTQSPSSLSASVGDRVTITCRASQSISSYLNWYQQKPGKAPKLLIYKASTLHNGVPSRFSGSGSGTDFTLTISNLQPEDFATYYCQQAISFPLTFGGGTKVEIK
Regarding B5, the Kd in assay [2] is less than 0.003 nM. Moreover, the Kd in [3] stood at 11.8 nM. Besides, in assay [4], the “% of Max Gamma, human NK cells” value came out at 51.6% and the “EC50 of IFNγ release, human NK cells” value came out at 8.4 nM. Further, in [7], the “EC50 of IFNγ release, human PBMC” value was determined as 1.66 nM and the “Fold change of IFNγ … human PBMC” value was found to be 238 fold. In assay [8], the “EC50 of IFNγ release, mouse splenocytes” value stood at 3.08 nM and the “Fold change of IFNγ … mouse splenocytes” value came to 11.9 fold. Also, in [9], the “ELISA binding ratio (fold-change over background)” value stood at 23.6 fold over background. Also, in [10], the “ELISA binding ratio (fold-change over background)” value turned out to be 22.1 fold over background. For the same molecule, the “ELISA binding ratio (fold-change over background)” value in assay [11] came out at 25.1 fold over background.

B6: anti-IL18BP antibody BP-08 (antibody, human IgG1, V domains shown)
VH: QVQLQQPGAELVKPGASVKLSCKVSGYTFTSYWMHWVKQRPGQGLEWIGMIDPNSDSSRYNEKFKNRATLTADKSSSTAFMQFSSLTSEDSAVYYCARSRLGQDYWGQGTTLTVSS
VL: DIVMTQSHKFMSTSVGDRVSITCKASQDVSTAVAWYQQKPGQSPKLLIYWASTRHTGVPDRFTGSESGTDYTLIISSVQAEDLALYYCQQHFSTPYTFGGGTKLEIK
Consider B6, for which the “blocking ELISA signal normalized” value was 0.133 ratio to isotype control in assay [1] and 0.478 ratio to isotype control in assay [6]. In [4], the “% of Max Gamma, human NK cells” value came to 58.4%. The “EC50 of IFNγ release, human NK cells” value in assay [4] came out at 19.2 nM. Further, the figures for the Kd in assay [12] and in assay [14] were 6.9 nM and 41.4 nM, respectively. In addition, the Fold change of IFNγ at 10 µg/ml vs baseline, mouse splenocytes in assay [15] is 0.75 fold. In assay [7], the “EC50 of IFNγ release, human PBMC” value is 2.01 nM. In addition, the “Fold change of IFNγ … human PBMC” value in [7] amounted to 5.19 fold. For the same molecule, the “ELISA binding ratio (fold-change over background)” value in assay [9] amounted to 38.8 fold over background; in [11], 41.5 fold over background. For the same molecule, in assay [16], the ELISA binding ratio (fold-change over background) (fold over background) was determined as 35.

Values taken from US20250333523A1 (Alector, published 2025).
